What was measured:
Assay type in all cases: cell-based
Nalm6 cells = assay: JNG assay, co-culture with Nalm6 cells; conditions: for NFAT-GFP ASSAY: Nalm6: co-culture with Nalm6
Procedure, shortened: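 GFP expression induced through the NFAT pathway was monitored by FACS once SAR-bearing Jurkat reporters had been cultured with target cells at an approximate 1:2 ratio for 4 to 18 hours; parental reporter cells served as the baseline.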

RS;411 = assay: JNG assay, co-culture with RS;411 cells; conditions: for NFAT-GFP ASSAY: RS411: co-culture with RS411
Method: Cellular supernatant is collected and assayed for the induction of cytokines (e.g., IL2).
JNG (Jurkat cells expressing EGFP under an NFAT promoter) were infected with lentiviral vectors encoding different single chain and multi-chain SARs by spinfection in the presence of 8 µg/ml of Polybrene® (Sigma, Catalog no. H9268). The Jurkat-NFAT-GFP cells are engineered in such a way that the IL-2 promoter, which carries NFAT binding sites, is cloned upstream of the GFP gene. These cells have been used to study signaling via TCR and CAR. The different SARs were stably expressed in Jurkat NFAT-GFP cells by lentiviral mediated gene transfer, followed by selection with puromycin or blasticidin. No drug selection was used in case the construct lacked an antibiotic resistance gene. The SAR-expressing Jurkat-NFAT-GFP cells were cocultured with the target cells at E:T ratio of approximately 1:2 for approximately 4 hours to 18 hours. When the interaction between SIRs and their target antigen results in activation of the NFAT pathway, GFP expression is induced. […] GFP expression was monitored by FACS analysis. The Jurkat-NFAT-GFP (parental) cells were used as control. The structure of different constructs can be determined based on their names. […] The sequence of the other constructs in the table can be similarly determined from their names and by referring to the different Tables of this disclosure that provide the names and SEQ ID NO of the different modules. Alternatively, the composition and modular architecture of the different SAR constructs can be determined from their sequences by bioinformatics tools, including using nucleic acid and amino acids homology searches. A SAR is considered positive in the assay in case the SAR expressing Jurkat-NFAT-GFP cells show greater % GFP positive cells when cultured with the target cell line as compared to parental Jurkat-NFAT-GFP cells. […] In general, the number +/-, +, 2+, 3+, 4+, 5+ refer to approximately 5%, 10%, 20%, 30%, 40% and 50% GFP positive cells. The % of GFP induction in the above assay is dependent not only the relative strength of the SAR but also, among other factors, on the relative level of expression of the SAR in the JNG cells and the relative level of expression of the target antigen in the target cell line. To control for the difference in gene transduction efficiency of the different SAR constructs, the experiment was conducted with JNG cells transduced with SAR constructs co-expressing a drug resistance gene (e.g., puromycin or PAC) followed by drug selection to generate a stable population of SAR-expressing cells. It is to be noted that the drug resistance gene (e.g., PAC) in the SAR constructs is optional and in vivo studies were conducted with SAR constructs lacking the PAC gene.

RAJI cells = assay: JNG assay, co-culture with RAJI cells
Procedure, shortened: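 Jurkat NFAT-GFP (JNG) cells stably transduced with SARs by lentivirus, with drug selection where the construct carried a resistance gene, then co-cultured with target cells at E:T ~1:2 for ~4–18 h. % GFP-positive cells measured by FACS against parental JNG; +/- to 5+ correspond to ~5–50% GFP-positive.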

Molecule | NFAT-GFP ASSAY: Nalm6 (Nalm6 cells) | NFAT-GFP ASSAY: RS411 (RS;411) | NFAT-GFP ASSAY: Raji (RAJI cells; JNG cells expressing construct, co-culture with Raji) | GFP induction / activity (RAJI cells; co-culture with RAJI cells) | GFP induction / activity (Nalm6 cells; co-culture with Nalm6 cells) | GFP induction / activity (RS;411; co-culture with RS;411 cells)
22124 (protein) MALPVTALLLPLALLLHAARPEVQLVESGGGLVQAGGSLRLSCAASGRTFSMGWFRQAPGKEREFVAAITYSGGSPYYADSVKGRFTISRDNAKNTVYLQMNSLKPEDTAVYYCAANPTYGSDWNAENWGQGTQVTVSSGGGGSGGGGSQLQLQESGPGLVKPSETLSLTCTVSGGSISSGDYYWGWIRQPPGKGLEWIGSISYSGSTYYNPSLKSRVTISVDTSRNQFSLKLSSVTAADTAVYYCTREDSSNWRSRGQGTLVTVSSGTGGGGSGGGGSGGGGSEFDIQMTQSPSSLSASVGDRVTITCKASDHINNWLAWYQQKPGQAPKLLIYGATTLETGVPSRFSGSGSGTDYTLTISSLQPEDFATYYCQQSWNTPWTFGQGTKLEIKRLEIQNPDPAVYQLRDSKSSDKSVCLFTDFDSQTNVSQSKDSDVYITDKCVLDMRSMDFKSNSAVAWSNKSDFACANAFNNSIIPEDTFFPSSDVPCDVKLVEKSFETDTNLNFQNLSVIGFRILLLKVAGFNLLMTLRLWSSRAKRSGSGVKQTLNFDLLKLAGDVESNPGPTSATMDWIWRILFLVGAATGAHSGPQVQLQESGGGLAQAGGSLRLSCAASGRTFSMGWFRQAPGKEREFVAAITYSGGSPYYASSVRGRFTISRDNAKNTVYLQMNSLKPEDTAVYYCAANPTYGSDWNAENWGQGTQVTVSSGSGGGGSGGGGSGGGGSFEQVQLQQPGAELVKPGASVKMSCKASGYAFSSYWINWMKQKPGQGLEWIGQIYPGDGDTNYNGKFKGRATLTADTSSSTAYMQLSSLTSEDSAVYFCARSITTVVGCAMDYWGQGTSVTVSSTREDLKNVFPPEVAVFEPSKAEIAHTQKATLVCLATGFYPDHVELSWWVNGKEVHSGVCTDPQPLKEQPALNDSRYCLSSRLRVSATFWQNPRNHFRCQVQFYGLSENDEWTQDRAKPVTQIVSAEAWGRADCGITSASYHQGVLSATILYEILLGKATLYAVLVSALVLMAMVKRKDSRGRAKRSGSGATNFSLLKQAGDVEENPGPSRGHMTEYKPTVRLATRDDVPRAVRTLAAAFADYPATRHTVDPDRHIERVTELQELFLTRVGLDIGKVWVADDGAAVAVWTTPESVEAGAVFAEIGPRMAELSGSRLAAQQQMEGLLAPHRPKEPAWFLATVGVSPDHQGKGLGSAVVLPGVEAAERAGVPAFLETSAPRNLPFYERLGFTVTADVEVPEGPRTWCMTRKPGA | 2+ (refer to approximately 5%, 10%, 20%, 30%, 40% and 50% GFP positive cells) | 2+ (refer to approximately 5%, 10%, 20%, 30%, 40% and 50% GFP positive cells) | – | – | – | –
22126 (protein) MALPVTALLLPLALLLHAARPEVQLVESGGGLVQPGGSLRLSCAASGFSFSDFWMSWVRQAPGKGLEWVATISQAGSEKDYVDSVKGRFTISRDNAKKSLYLQMNSLRAEDTAVYYCASGVYSFDYRGQGTLVTVSSGTGGGGSGGGGSGGGGSEFDIQMTQSPSSLSASVGDRVTITCKASDHINNWLAWYQQKPGQAPKLLIYGATTLETGVPSRFSGSGSGTDYTLTISSLQPEDFATYYCQQSWNTPWTFGQGTKLEIKRLEDLKNVFPPEVAVFEPSKAEIAHTQKATLVCLATGFYPDHVELSWWVNGKEVHSGVCTDPQPLKEQPALNDSRYCLSSRLRVSATFWQNPRNHFRCQVQFYGLSENDEWTQDRAKPVTQIVSAEAWGRADCGITSASYHQGVLSATILYEILLGKATLYAVLVSALVLMAMVKRKDSRGRAKRSGSGATNFSLLKQAGDVEENPGPTSATMDWIWRILFLVGAATGAHSGPQVQLQESGGGLAQAGGSLRLSCAASGRTFSMGWFRQAPGKEREFVAAITYSGGSPYYASSVRGRFTISRDNAKNTVYLQMNSLKPEDTAVYYCAANPTYGSDWNAENWGQGTQVTVSSGSGGGGSGGGGSGGGGSFEQVQLQQPGAELVKPGASVKMSCKASGYAFSSYWINWMKQKPGQGLEWIGQIYPGDGDTNYNGKFKGRATLTADTSSSTAYMQLSSLTSEDSAVYFCARSITTVVGCAMDYWGQGTSVTVSSTRIQNPDPAVYQLRDSKSSDKSVCLFTDFDSQTNVSQSKDSDVYITDKCVLDMRSMDFKSNSAVAWSNKSDFACANAFNNSIIPEDTFFPSSDVPCDVKLVEKSFETDTNLNFQNLSVIGFRILLLKVAGFNLLMTLRLWSSRAKRSGSGVKQTLNFDLLKLAGDVESNPGPSRGHMTEYKPTVRLATRDDVPRAVRTLAAAFADYPATRHTVDPDRHIERVTELQELFLTRVGLDIGKVWVADDGAAVAVWTTPESVEAGAVFAEIGPRMAELSGSRLAAQQQMEGLLAPHRPKEPAWFLATVGVSPDHQGKGLGSAVVLPGVEAAERAGVPAFLETSAPRNLPFYERLGFTVTADVEVPEGPRTWCMTRKPGA | 5+ (refer to approximately 5%, 10%, 20%, 30%, 40% and 50% GFP positive cells) | +/- (refer to approximately 5%, 10%, 20%, 30%, 40% and 50% GFP positive cells) | 5+ (refer to approximately 5%, 10%, 20%, 30%, 40% and 50% GFP positive cells) | – | – | –
SEQ ID NO: 22162: bispecific SAR construct targeting CD19 and PD1 (protein) MALPVTALLLPLALLLHAARPDIQMTQSPSSLSASVGDRVTITCKASDHINNWLAWYQQKPGQAPKLLIYGATTLETGVPSRFSGSGSGTDYTLTISSLQPEDFATYYCQQSWNTPWTFGQGTKLEIKRLEDLKNVFPPEVAVFEPSEAEISHTQKATLVCLATGFYPDHVELSWWVNGKEVHSGVCTDPQPLKEQPALNDSRYCLSSRLRVSATFWQNPRNHFRCQVQFYGLSENDEWTQDRAKPVTQIVSAEAWGRADCGFTSESYQQGVLSATILYEILLGKATLYAVLVSALVLMAMVKRKDSRGRAKRSGSGATNFSLLKQAGDVEENPGPTSATMDWIWRILFLVGAATGAHSGPEVQLLESGGGLVQPGGSLRLSCAASGSIASIHAMGWFRQAPGKEREFVAVITWSGGITYYADSVKGRFTISRDNSKNTVYLQMNSLRPEDTALYYCAGDKHQSSWYDYWGQGTLVTVSSGSGGGGSGGGGSGGGGSFEQVQLQQPGAELVKPGASVKMSCKASGYAFSSYWINWMKQKPGQGLEWIGQIYPGDGDTNYNGKFKGRATLTADTSSSTAYMQLSSLTSEDSAVYFCARSITTVVGCAMDYWGQGTSVTVSSTRIQNPDPAVYQLRDSKSSDKSVCLFTDFDSQTNVSQSKDSDVYITDKCVLDMRSMDFKSNSAVAWSNKSDFACANAFNNSIIPEDTFFPSPESSCDVKLVEKSFETDTNLNFQNLSVIGFRILLLKVAGFNLLMTLRLWSSRAKRSGSGVKQTLNFDLLKLAGDVESNPGPSRGHMTEYKPTVRLATRDDVPRAVRTLAAAFADYPATRHTVDPDRHIERVTELQELFLTRVGLDIGKVWVADDGAAVAVWTTPESVEAGAVFAEIGPRMAELSGSRLAAQQQMEGLLAPHRPKEPAWFLATVGVSPDHQGKGLGSAVVLPGVEAAERAGVPAFLETSAPRNLPFYERLGFTVTADVEVPEGPRTWCMTRKPGA | – | – | – | robust activity | robust activity | robust activity

From patent US20230212319A1, “NOVEL ANTIGEN BINDING DOMAINS AND SYNTHETIC ANTIGEN RECEPTORS INCORPORATING THE SAME” (University of Southern California, priority 2020, published 2023)
